Tests used:
[1] = target: T1, Human CD73 on cells (MDA-MB-231, Jurkat CD73 knock-in, NCI-H322) (human, UniProt P21589 27-549); assay: cell-based or functional assay
T1 sequence: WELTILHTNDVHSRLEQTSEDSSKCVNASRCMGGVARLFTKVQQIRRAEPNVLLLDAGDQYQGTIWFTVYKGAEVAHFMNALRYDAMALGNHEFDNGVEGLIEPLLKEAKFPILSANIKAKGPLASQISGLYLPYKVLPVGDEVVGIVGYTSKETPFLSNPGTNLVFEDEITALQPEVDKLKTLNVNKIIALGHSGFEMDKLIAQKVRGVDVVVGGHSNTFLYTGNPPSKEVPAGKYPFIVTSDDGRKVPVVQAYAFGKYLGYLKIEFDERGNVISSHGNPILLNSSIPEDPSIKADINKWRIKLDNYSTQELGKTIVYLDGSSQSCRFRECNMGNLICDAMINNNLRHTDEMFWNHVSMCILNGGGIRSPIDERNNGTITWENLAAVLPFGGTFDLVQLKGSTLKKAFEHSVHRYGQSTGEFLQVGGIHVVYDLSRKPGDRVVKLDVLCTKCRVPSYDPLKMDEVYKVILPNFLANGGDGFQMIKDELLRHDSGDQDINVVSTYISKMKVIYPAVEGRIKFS

[2] = target: T2, Murine CD73 on cells (4T1, Jurkat mCD73 knock-in) (murine, UniProt Q61503 29-551); assay: cell-based or functional assay
T2 sequence (looked up): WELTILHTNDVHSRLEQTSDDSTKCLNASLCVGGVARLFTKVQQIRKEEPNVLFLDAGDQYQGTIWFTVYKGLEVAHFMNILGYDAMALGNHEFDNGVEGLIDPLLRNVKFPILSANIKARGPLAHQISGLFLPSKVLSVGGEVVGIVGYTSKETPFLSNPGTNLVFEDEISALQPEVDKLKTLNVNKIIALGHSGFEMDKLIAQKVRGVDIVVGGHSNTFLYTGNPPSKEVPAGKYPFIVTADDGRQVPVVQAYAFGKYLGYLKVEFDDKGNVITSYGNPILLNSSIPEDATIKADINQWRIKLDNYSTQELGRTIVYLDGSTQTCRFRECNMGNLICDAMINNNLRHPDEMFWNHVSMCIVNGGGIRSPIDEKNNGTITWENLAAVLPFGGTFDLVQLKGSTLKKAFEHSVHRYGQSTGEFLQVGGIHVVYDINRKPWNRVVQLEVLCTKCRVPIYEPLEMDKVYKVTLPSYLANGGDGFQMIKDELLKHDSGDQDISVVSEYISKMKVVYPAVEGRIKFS

[3] = target: T3, Recombinant soluble wild-type human CD73 with C-terminal 6x-histidine tag (human, UniProt P21589 27-549); assay: SPR (ProteOn), CD73 immobilized on HTG chip
T3 construct: dimer in solution; also called sCD73; WT huCD73
T3 sequence: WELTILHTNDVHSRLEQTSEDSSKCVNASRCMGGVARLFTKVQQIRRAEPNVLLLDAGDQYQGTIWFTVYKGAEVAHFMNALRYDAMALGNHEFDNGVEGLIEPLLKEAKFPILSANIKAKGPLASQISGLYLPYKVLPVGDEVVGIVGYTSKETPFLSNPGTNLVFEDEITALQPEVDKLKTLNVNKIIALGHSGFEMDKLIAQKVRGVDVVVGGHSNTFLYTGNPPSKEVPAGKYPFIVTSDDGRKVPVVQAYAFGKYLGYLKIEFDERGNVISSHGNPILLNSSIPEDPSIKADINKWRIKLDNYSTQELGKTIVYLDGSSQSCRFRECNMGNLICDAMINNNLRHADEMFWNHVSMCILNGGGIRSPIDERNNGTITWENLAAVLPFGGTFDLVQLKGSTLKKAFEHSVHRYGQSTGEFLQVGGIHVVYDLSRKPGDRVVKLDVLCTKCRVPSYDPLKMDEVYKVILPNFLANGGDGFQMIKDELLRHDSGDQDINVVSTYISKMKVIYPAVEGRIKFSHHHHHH

[4] = target: T4, Cynomolgus CD73 ECD (cynomolgus, UniProt A0A2K5V5U7 27-549); assay: SPR (Proteon)
T4 construct: extracellular domain; also called cyno CD73
T4 sequence: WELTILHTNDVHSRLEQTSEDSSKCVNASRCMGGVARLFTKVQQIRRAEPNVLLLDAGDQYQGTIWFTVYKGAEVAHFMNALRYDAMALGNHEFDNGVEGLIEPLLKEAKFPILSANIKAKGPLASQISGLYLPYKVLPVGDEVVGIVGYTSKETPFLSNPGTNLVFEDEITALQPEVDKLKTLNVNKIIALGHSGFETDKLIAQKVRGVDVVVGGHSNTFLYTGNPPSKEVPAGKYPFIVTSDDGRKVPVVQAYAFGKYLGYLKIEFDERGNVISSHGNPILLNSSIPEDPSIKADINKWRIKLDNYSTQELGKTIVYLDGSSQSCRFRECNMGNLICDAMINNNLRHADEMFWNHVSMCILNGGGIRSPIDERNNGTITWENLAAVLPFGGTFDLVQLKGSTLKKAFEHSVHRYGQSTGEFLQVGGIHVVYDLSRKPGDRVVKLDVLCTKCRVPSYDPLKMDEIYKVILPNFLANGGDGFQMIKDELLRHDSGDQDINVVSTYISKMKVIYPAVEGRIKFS

B1: MEDI9447 (antibody, human IgG1, lambda, V domains shown)
VH: EVQLLESGGGLVQPGGSLRLSCAASGFTFSSYAYSWVRQAPGKGLEWVSAISGSGGRTYYADSVKGRFTISRDNSKNTLYLQMNSLRAEDTAVYYCARLGYGRVDEWGRGTLVTVSS
VL: QSVLTQPPSASGTPGQRVTISCSGSLSNIGRNPVNWYQQLPGTAPKLLIYLDNLRLSGVPDRFSGSKSGTSASLAISGLQSEDEADYYCATWDDSHPGWTFGGGTKLTVLG
notes: Human IgG1-TM (L234F, L235E, P331S), lambda light chain; also called clone 10.3 antibody; 73combo3
Q: Which results are given for B1?
A: FabZAP internalization, EC50, MDA-MB-231 [1]: 3.5 pM; FabZAP internalization, maximum toxicity, MDA-MB-231 [1]: 97%; FabZAP internalization, EC50, 4T1 [2]: 18.5 pM; FabZAP internalization, maximum toxicity, 4T1 [2]: 97%; koff [3]: 1.94e-05 s⁻¹; kon [3]: 4.63e+06 M⁻¹ s⁻¹; Kd [4]: 7 pM
